Measured values published in US20210388087A1 (Chugai, published 2021).

B1: H183/L072 VH D52aQ (antibody, name in Kabat numbering, V domains shown)
VH: QVQLVESGGGLVQPGRSLRLSCAASGFTFSNAWMHWVRQAPGKGLEWVAQIKQKGNAYAAYYAPSVKGRFTISRDDSKNSIYLQMNSLKTEDTAVYYCHYVHYASASTVLPAFGVDAWGQGTTVTVSS
VL: DIVMTQSPLSLPVTPGEPASISCQASQELVHMNRNTYLHWYQQKPGQAPRLLIYKVSNRFPGVPDRFSGSGSGTDFTLKISRVEAEDVGVYYCAQGTSVPFTFGQGTKLEIK
B2: H183/L072 VH D101P (antibody, name in Kabat numbering, V domains shown)
VH: QVQLVESGGGLVQPGRSLRLSCAASGFTFSNAWMHWVRQAPGKGLEWVAQIKDKGNAYAAYYAPSVKGRFTISRDDSKNSIYLQMNSLKTEDTAVYYCHYVHYASASTVLPAFGVPAWGQGTTVTVSS
VL: DIVMTQSPLSLPVTPGEPASISCQASQELVHMNRNTYLHWYQQKPGQAPRLLIYKVSNRFPGVPDRFSGSGSGTDFTLKISRVEAEDVGVYYCAQGTSVPFTFGQGTKLEIK
B3: H183/L072 VH F27A (antibody, name in Kabat numbering, V domains shown)
VH: QVQLVESGGGLVQPGRSLRLSCAASGATFSNAWMHWVRQAPGKGLEWVAQIKDKGNAYAAYYAPSVKGRFTISRDDSKNSIYLQMNSLKTEDTAVYYCHYVHYASASTVLPAFGVDAWGQGTTVTVSS
VL: DIVMTQSPLSLPVTPGEPASISCQASQELVHMNRNTYLHWYQQKPGQAPRLLIYKVSNRFPGVPDRFSGSGSGTDFTLKISRVEAEDVGVYYCAQGTSVPFTFGQGTKLEIK
B4: H183/L072 VH D101M (antibody, name in Kabat numbering, V domains shown)
VH: QVQLVESGGGLVQPGRSLRLSCAASGFTFSNAWMHWVRQAPGKGLEWVAQIKDKGNAYAAYYAPSVKGRFTISRDDSKNSIYLQMNSLKTEDTAVYYCHYVHYASASTVLPAFGVMAWGQGTTVTVSS
VL: DIVMTQSPLSLPVTPGEPASISCQASQELVHMNRNTYLHWYQQKPGQAPRLLIYKVSNRFPGVPDRFSGSGSGTDFTLKISRVEAEDVGVYYCAQGTSVPFTFGQGTKLEIK
B5: H183/L072 VH F27G (antibody, name in Kabat numbering, V domains shown)
VH: QVQLVESGGGLVQPGRSLRLSCAASGGTFSNAWMHWVRQAPGKGLEWVAQIKDKGNAYAAYYAPSVKGRFTISRDDSKNSIYLQMNSLKTEDTAVYYCHYVHYASASTVLPAFGVDAWGQGTTVTVSS
VL: DIVMTQSPLSLPVTPGEPASISCQASQELVHMNRNTYLHWYQQKPGQAPRLLIYKVSNRFPGVPDRFSGSGSGTDFTLKISRVEAEDVGVYYCAQGTSVPFTFGQGTKLEIK
B6: H183/L072 VH D52aW (antibody, name in Kabat numbering, V domains shown)
VH: QVQLVESGGGLVQPGRSLRLSCAASGFTFSNAWMHWVRQAPGKGLEWVAQIKWKGNAYAAYYAPSVKGRFTISRDDSKNSIYLQMNSLKTEDTAVYYCHYVHYASASTVLPAFGVDAWGQGTTVTVSS
VL: DIVMTQSPLSLPVTPGEPASISCQASQELVHMNRNTYLHWYQQKPGQAPRLLIYKVSNRFPGVPDRFSGSGSGTDFTLKISRVEAEDVGVYYCAQGTSVPFTFGQGTKLEIK
B7: H183/L072 VH F27D (antibody, name in Kabat numbering, V domains shown)
VH: QVQLVESGGGLVQPGRSLRLSCAASGDTFSNAWMHWVRQAPGKGLEWVAQIKDKGNAYAAYYAPSVKGRFTISRDDSKNSIYLQMNSLKTEDTAVYYCHYVHYASASTVLPAFGVDAWGQGTTVTVSS
VL: DIVMTQSPLSLPVTPGEPASISCQASQELVHMNRNTYLHWYQQKPGQAPRLLIYKVSNRFPGVPDRFSGSGSGTDFTLKISRVEAEDVGVYYCAQGTSVPFTFGQGTKLEIK
B8: H183/L072 VH F27I (antibody, name in Kabat numbering, V domains shown)
VH: QVQLVESGGGLVQPGRSLRLSCAASGITFSNAWMHWVRQAPGKGLEWVAQIKDKGNAYAAYYAPSVKGRFTISRDDSKNSIYLQMNSLKTEDTAVYYCHYVHYASASTVLPAFGVDAWGQGTTVTVSS
VL: DIVMTQSPLSLPVTPGEPASISCQASQELVHMNRNTYLHWYQQKPGQAPRLLIYKVSNRFPGVPDRFSGSGSGTDFTLKISRVEAEDVGVYYCAQGTSVPFTFGQGTKLEIK
B9: H183/L072 VH D52aT (antibody, name in Kabat numbering, V domains shown)
VH: QVQLVESGGGLVQPGRSLRLSCAASGFTFSNAWMHWVRQAPGKGLEWVAQIKTKGNAYAAYYAPSVKGRFTISRDDSKNSIYLQMNSLKTEDTAVYYCHYVHYASASTVLPAFGVDAWGQGTTVTVSS
VL: DIVMTQSPLSLPVTPGEPASISCQASQELVHMNRNTYLHWYQQKPGQAPRLLIYKVSNRFPGVPDRFSGSGSGTDFTLKISRVEAEDVGVYYCAQGTSVPFTFGQGTKLEIK
B10: H183/L072 VH D52aR (antibody, name in Kabat numbering, V domains shown)
VH: QVQLVESGGGLVQPGRSLRLSCAASGFTFSNAWMHWVRQAPGKGLEWVAQIKRKGNAYAAYYAPSVKGRFTISRDDSKNSIYLQMNSLKTEDTAVYYCHYVHYASASTVLPAFGVDAWGQGTTVTVSS
VL: DIVMTQSPLSLPVTPGEPASISCQASQELVHMNRNTYLHWYQQKPGQAPRLLIYKVSNRFPGVPDRFSGSGSGTDFTLKISRVEAEDVGVYYCAQGTSVPFTFGQGTKLEIK
B11: H183/L072 VH F27E (antibody, name in Kabat numbering, V domains shown)
VH: QVQLVESGGGLVQPGRSLRLSCAASGETFSNAWMHWVRQAPGKGLEWVAQIKDKGNAYAAYYAPSVKGRFTISRDDSKNSIYLQMNSLKTEDTAVYYCHYVHYASASTVLPAFGVDAWGQGTTVTVSS
VL: DIVMTQSPLSLPVTPGEPASISCQASQELVHMNRNTYLHWYQQKPGQAPRLLIYKVSNRFPGVPDRFSGSGSGTDFTLKISRVEAEDVGVYYCAQGTSVPFTFGQGTKLEIK
B12: H183/L072 VH D101L (antibody, name in Kabat numbering, V domains shown)
VH: QVQLVESGGGLVQPGRSLRLSCAASGFTFSNAWMHWVRQAPGKGLEWVAQIKDKGNAYAAYYAPSVKGRFTISRDDSKNSIYLQMNSLKTEDTAVYYCHYVHYASASTVLPAFGVLAWGQGTTVTVSS
VL: DIVMTQSPLSLPVTPGEPASISCQASQELVHMNRNTYLHWYQQKPGQAPRLLIYKVSNRFPGVPDRFSGSGSGTDFTLKISRVEAEDVGVYYCAQGTSVPFTFGQGTKLEIK
B13: H183/L072 VH D52aY (antibody, name in Kabat numbering, V domains shown)
VH: QVQLVESGGGLVQPGRSLRLSCAASGFTFSNAWMHWVRQAPGKGLEWVAQIKYKGNAYAAYYAPSVKGRFTISRDDSKNSIYLQMNSLKTEDTAVYYCHYVHYASASTVLPAFGVDAWGQGTTVTVSS
VL: DIVMTQSPLSLPVTPGEPASISCQASQELVHMNRNTYLHWYQQKPGQAPRLLIYKVSNRFPGVPDRFSGSGSGTDFTLKISRVEAEDVGVYYCAQGTSVPFTFGQGTKLEIK
B14: H183/L072 VH F27K (antibody, name in Kabat numbering, V domains shown)
VH: QVQLVESGGGLVQPGRSLRLSCAASGKTFSNAWMHWVRQAPGKGLEWVAQIKDKGNAYAAYYAPSVKGRFTISRDDSKNSIYLQMNSLKTEDTAVYYCHYVHYASASTVLPAFGVDAWGQGTTVTVSS
VL: DIVMTQSPLSLPVTPGEPASISCQASQELVHMNRNTYLHWYQQKPGQAPRLLIYKVSNRFPGVPDRFSGSGSGTDFTLKISRVEAEDVGVYYCAQGTSVPFTFGQGTKLEIK
B15: H183/L072 VH D52aS (antibody, name in Kabat numbering, V domains shown)
VH: QVQLVESGGGLVQPGRSLRLSCAASGFTFSNAWMHWVRQAPGKGLEWVAQIKSKGNAYAAYYAPSVKGRFTISRDDSKNSIYLQMNSLKTEDTAVYYCHYVHYASASTVLPAFGVDAWGQGTTVTVSS
VL: DIVMTQSPLSLPVTPGEPASISCQASQELVHMNRNTYLHWYQQKPGQAPRLLIYKVSNRFPGVPDRFSGSGSGTDFTLKISRVEAEDVGVYYCAQGTSVPFTFGQGTKLEIK
B16: H183/L072 VH D52aV (antibody, name in Kabat numbering, V domains shown)
VH: QVQLVESGGGLVQPGRSLRLSCAASGFTFSNAWMHWVRQAPGKGLEWVAQIKVKGNAYAAYYAPSVKGRFTISRDDSKNSIYLQMNSLKTEDTAVYYCHYVHYASASTVLPAFGVDAWGQGTTVTVSS
VL: DIVMTQSPLSLPVTPGEPASISCQASQELVHMNRNTYLHWYQQKPGQAPRLLIYKVSNRFPGVPDRFSGSGSGTDFTLKISRVEAEDVGVYYCAQGTSVPFTFGQGTKLEIK
B17: H183/L072 VH D101I (antibody, name in Kabat numbering, V domains shown)
VH: QVQLVESGGGLVQPGRSLRLSCAASGFTFSNAWMHWVRQAPGKGLEWVAQIKDKGNAYAAYYAPSVKGRFTISRDDSKNSIYLQMNSLKTEDTAVYYCHYVHYASASTVLPAFGVIAWGQGTTVTVSS
VL: DIVMTQSPLSLPVTPGEPASISCQASQELVHMNRNTYLHWYQQKPGQAPRLLIYKVSNRFPGVPDRFSGSGSGTDFTLKISRVEAEDVGVYYCAQGTSVPFTFGQGTKLEIK
B18: H183/L072 VH D101A (antibody, name in Kabat numbering, V domains shown)
VH: QVQLVESGGGLVQPGRSLRLSCAASGFTFSNAWMHWVRQAPGKGLEWVAQIKDKGNAYAAYYAPSVKGRFTISRDDSKNSIYLQMNSLKTEDTAVYYCHYVHYASASTVLPAFGVAAWGQGTTVTVSS
VL: DIVMTQSPLSLPVTPGEPASISCQASQELVHMNRNTYLHWYQQKPGQAPRLLIYKVSNRFPGVPDRFSGSGSGTDFTLKISRVEAEDVGVYYCAQGTSVPFTFGQGTKLEIK
B19: H183/L072 VH F27H (antibody, name in Kabat numbering, V domains shown)
VH: QVQLVESGGGLVQPGRSLRLSCAASGHTFSNAWMHWVRQAPGKGLEWVAQIKDKGNAYAAYYAPSVKGRFTISRDDSKNSIYLQMNSLKTEDTAVYYCHYVHYASASTVLPAFGVDAWGQGTTVTVSS
VL: DIVMTQSPLSLPVTPGEPASISCQASQELVHMNRNTYLHWYQQKPGQAPRLLIYKVSNRFPGVPDRFSGSGSGTDFTLKISRVEAEDVGVYYCAQGTSVPFTFGQGTKLEIK

Target: T1, Human CD3eg linker (human)
T1 construct: Single chain: epsilon and gamma subunits of human CD3 joined by a 29-mer linker, Flag-tag at the C-terminus; also called recombinant human CD3
T1 chain: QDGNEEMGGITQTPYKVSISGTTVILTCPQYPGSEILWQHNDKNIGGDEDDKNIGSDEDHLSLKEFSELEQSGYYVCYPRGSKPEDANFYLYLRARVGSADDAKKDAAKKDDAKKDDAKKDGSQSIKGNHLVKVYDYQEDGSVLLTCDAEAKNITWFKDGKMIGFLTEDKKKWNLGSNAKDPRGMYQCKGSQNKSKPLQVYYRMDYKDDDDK
Test: Biacore SPR, vs template H183/L072

| Binder | fold change of affinity [fold] |
| --- | --- |
| B1 | 0 |
| B2 | 0 |
| B3 | 0.2 |
| B4 | 0.7 |
| B5 | 0.5 |
| B6 | 0 |
| B7 | 0 |
| B8 | 0.6 |
| B9 | 0 |
| B10 | 0 |
| B11 | 0 |
| B12 | 2.3 |
| B13 | 0 |
| B14 | 0.3 |
| B15 | 0 |
| B16 | 0 |
| B17 | 0.6 |
| B18 | 0.8 |
| B19 | 0.1 |
